Substrate in this data set: CC(=O)Oc1ccc([N+](=O)[O-])cc1
The data set can be described thus: purified protein. The conditions noted are these: 10 nM enzyme, 100 mM phosphate-citrate buffer pH 7.0, 25 °C, 1% DMSO. The class given is biochemical, Phocaeicola vulgatus.

Usually Km stands for the concentration of substrate that gives half-maximal velocity. As usually defined, the kcat is the maximal rate divided by the concentration of active sites. Usually kcat/Km stands for the second-order rate constant that governs catalysis at low substrate concentration.

B1: PvSAE (Phocaeicola vulgatus ATCC 8482) (protein)
chain: ERKYSTFYEQRATLFEELPVTSKDIIFLGNSITNGCEWAELFQNKNVKNRGISGDICMGVYDRLDPIVKGKPAKIFLLIGINDVSRGTSADKIISEISMIVRKIKQESPKTKLYLQSVLPVNDCYGMFNGHTSRWQVVKQINDLLEPLAVKEGVAYIDLYSHFVEKETGKMNPVYTNDGLHLLGKGYLLWRDIVKPYVDQK
notes: signal peptide removed (predicted cleavage 19/20); E. coli BL21(DE3) Gold
B1: the Km is recorded as 80 ± 6 µM, the kcat worked out at 75 ± 1 s⁻¹ and the kcat/Km was found to be 930000 ± 70000 M⁻¹ s⁻¹.
